Substrate in data set [1]: N[C@@H](CS(=O)O)C(=O)O
Nature of the data set: HPLC of hypotaurine product (OPA derivatised). Format: biochemical, Oncorhynchus mykiss. To be noted: 100 mM NaH2PO4, 10 μM PLP, 37 °C, 10 min, CSA 0–15 mM, pH not given for assay (enzyme buffer pH 7.4).

Substrate in data set [2]: N[C@@H](CS(=O)O)C(=O)O
Nature of the data set: HPLC of hypotaurine product (OPA derivatised). The class given is biochemical, Paralichthys olivaceus. To be noted: 100 mM NaH2PO4, 10 μM PLP, 37 °C, 10 min, CSA 0–15 mM, pH not given for assay (enzyme buffer pH 7.4).

Substrate in data set [3]: N[C@@H](CS)C(=O)O
Nature of the data set: HPLC of CSA product (OPA derivatised). The class given is biochemical, Oncorhynchus mykiss. To be noted: MES 62.5 mM (pH 6.1 given for tissue buffer), 0.3 mM ferrous sulfate, 62.5 μM bathocuproine disulfonate, O2 (air), 37 °C, fit at 0–4 mM, substrate inhibition above 4 mM.

Substrate in data set [4]: N[C@@H](CS)C(=O)O
The data set can be described thus: HPLC of CSA product (OPA derivatised). The class given is biochemical, Paralichthys olivaceus. To be noted: MES 62.5 mM (pH 6.1 given for tissue buffer), 0.3 mM ferrous sulfate, 62.5 μM bathocuproine disulfonate, O2 (air), 37 °C, fit at 0–4 mM, substrate inhibition above 4 mM.

Residue numbers refer to the chain shown, from its start. Numbers in names are those of the source.

B1: rainbow trout CSD (Oncorhynchus mykiss) (protein)
chain: MSHLPRFWNLGWSSFLDWWSNQSVVSEQGPSPLYGQQEMNEPLLDNSEGQLFLTEAFKVIVEEVLCKGTDVKEKVCEWREPEELAALLDLELRENGEPQHQLLQRIRDVAKYSVKTNHPRFFNQLFAGVDYHALTGRFLTEALNTSQYTYEVAPVFVLMEDEVLSKLRSLVGWAEGDGIFCPGGTMSNMYAMNVARYRAFPEVKLKGMWSLPRLAVFTSQQSHYSVMKAAAFQGIGTENVFKVKVDDRGCMIPEDLGETIELAKSQGAVPFFVHATSGTTVQGAFDPLEPIADICDRQGLWMHVDAAWGGSVLFSKEHKHLMRGVERADSVTWNPHKMMLTGLQCSAILLKDTTHLLKHCHSADAKYLFQQDKFYDTSLDTGDKSIQCGRKVDCLKLWLMWKAVGSKGLEERVDRAFTHTRYLVEEMKRREGFELIGKPLFVNVCFWFIPPSLRGKENSPDYNDRLSKVAPVIKERMMKQGTMMLGYQPQGGRVNFFRMIVISPQLSHQDMTFCLNEIERLGSDL
notes: full-length ORF (525 aa, ORF 1575 bp), N-terminal 6xHis tag, pET-28a, E. coli BL21(DE3), HisTrap and Superdex 200
With B1, in data set [1], the Km – broadly, the concentration of substrate that gives half-maximal velocity – turned out to be 2300 ± 240 µM; the kcat (in general, the number of substrate molecules converted per active site and unit of time at saturation) was 4.72 ± 0.36 s⁻¹.

B2: rainbow trout CSD (Oncorhynchus mykiss; S146N/Y148F) (protein)
chain: B1 chain with S146N, Y148F
notes: as for B1
In the case of B2, in data set [1], the Km was determined as 2730 ± 270 µM and the kcat is 1.86 ± 0.07 s⁻¹.

B3: Japanese flounder CSD (Paralichthys olivaceus) (protein)
chain: MNEPLLDNSEGQLFLTEAFKVIVEEVLCKGTDVKEKVCEWREPEELAALLDLELRENGEPQHQLLQRIRDVAKYSVKTSHPRFFNQQFAGVDYHSLAGRFLTESLNTNLFTYEVAPVFVLMETEVLRGLRQLVGWTEGDGIFCPGGSTSNMYAMNLARYRLFPEVKTQGLWGLPRLTVFTSQESHYSVKKGAGFLGLGTDNVILVKVDDGGRMIPSDLDEKITLTKSQGAVPFLVSCTAGTTVQGAFDPLDHIADVCEKHKLWLHVDAAWGGSVLFSKQHRHLMKGVDRANSVAWNPHKMLVAGLQCSALLLKDTTNLLKQCHCASATYLFQQDKFYDVNLDIGDKSLQCSRKVDCLKLWLMWKAVGSNGLAERVDKAFFHVRYLVEQMKKREGFHLLGQPEFVNVCFWYIPPSLRGKEGDSDYQDRLAKVAPVIKERMVKQGTMMVGYQPLANRVNFFRVIIFSPLISQRDIDFFLDEIERLGNDL
notes: full-length ORF (487 aa printed, ORF 1461 bp), N-terminal 6xHis tag, pET-28a, E. coli BL21(DE3), HisTrap and Superdex 200
In the case of B3, in data set [2], the Michaelis-Menten constant (Km) came to 3450 ± 380 µM and the catalytic constant (kcat) was 1.52 ± 0.13 s⁻¹.

B4: Japanese flounder CSD (Paralichthys olivaceus; F110Y/N108S) (protein)
chain: B3 chain with N108S, F110Y
notes: as for B3
Turning to B4, in data set [2], the Km is 1830 ± 170 µM and the turnover number (kcat) is 6.26 ± 0.20 s⁻¹.

B5: rainbow trout CDO (Oncorhynchus mykiss) (protein)
chain: MDQTELLKPETLDDLIKVLHKIFESDNINVEEVQNIMEAYDSNPQEWMKFAKFDQFRYTRNLVDEGNGKFNLMILCWGEGHGSSIHDHTDSHCFMKLLQGQLKETLFEWPDKKTCNMVQKSQRILQTNQCAYINDSFGLHRVENASHTECSASLHLYSPPFKTCQTFDQRTGHKNTVKMTFWSKFGERTPFETTVSQENN
notes: full-length ORF (200 aa printed, ORF 600 bp), N-terminal 6xHis tag, pET-28a, E. coli BL21(DE3), HisTrap and Superdex 200, iron supplemented; partly Cys-Tyr crosslinked
Consider B5, for which, in data set [3], the Km is 790 ± 90 µM and the turnover number (kcat) worked out at 16.72 ± 0.67 s⁻¹.

B6: Japanese flounder CDO (Paralichthys olivaceus) (protein)
chain: MEHTELLKPETLDELIKTLHDIFDSDCINVEEVQGVMESYESKPQEWMKYAKFDQYRYTRNLVDEGNGKFNLMILCWGEGHGSSIHDHTDSHCFMKLLQGQLKETLFEWPDCQSHGDMVQRSQRILQENKVAYINDSLGLHRVENVSHTECAVSLHLYSPPFQACQTFDQRTGHRNTVKMTFWSKYGERTPFETTVSQENN
notes: full-length ORF (201 aa printed, ORF 603 bp), N-terminal 6xHis tag, pET-28a, E. coli BL21(DE3), HisTrap and Superdex 200, iron supplemented; partly Cys-Tyr crosslinked
In the case of B6, in data set [4], the Km was found to be 1230 ± 150 µM and the catalytic constant (kcat) amounted to 29.36 ± 1.52 s⁻¹.
